Paper PMC4072508, “Genome-Wide Prediction and Validation of Peptides That Bind Human Prosurvival Bcl-2 Proteins” (PLoS Computational Biology, 2014)
Where “and” joins values, the source holds several entries; their conditions need not be identical. Equal entries are not always repeated. Residues, ends and D or L forms follow the SMILES beside them. *: point of attachment. 5FAM = O=C1OC2(c3ccc(O)cc3Oc3cc(O)ccc32)c2ccc(C(=O)*)cc21

How the values were obtained:
[1] = target: T1, Bcl-xL (Homo sapiens, UniProt Q07817); experiment: LUMIER full-length protein interaction; assay type: binding; details: LUMIER results for Bcl-xL; for z-score 1.1: experiment 1, duplicate 1; for z-score 1.2: experiment 1, duplicate 2; for z-score 2.1: experiment 2, duplicate 1; for z-score 2.2: experiment 2, duplicate 2
T1 construct: myc-Bcl-xL SPOT array & FP; made in house
T1 sequence (Q07817 with tags, fused parts or gaps): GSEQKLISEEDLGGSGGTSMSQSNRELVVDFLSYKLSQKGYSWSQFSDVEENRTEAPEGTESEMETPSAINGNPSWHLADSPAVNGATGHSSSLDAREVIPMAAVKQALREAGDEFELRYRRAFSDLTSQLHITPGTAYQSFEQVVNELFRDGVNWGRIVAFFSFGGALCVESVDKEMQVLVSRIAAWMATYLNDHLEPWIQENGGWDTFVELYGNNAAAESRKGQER
Procedure: (§1) The LUMIER assay was carried out as previously described with the following modifications. A stable cell line expressing receptor tagged on the N-terminus with Nanoluc luciferase was created (the prey). […] Each bait construct was transfected into the receptor-luciferase cells in a 96-well format and after 48 hours the cells were lysed and transferred to 384-well plates coated with anti-FLAG. After incubation and washing, luminescence was measured to quantify how much receptor-luciferase was captured by the bait protein. Anti-Flag ELISA signal was used to exclude bait proteins that were not expressed. The experiment was carried out two times, each in duplicate.

[2] = target: T2, Mcl-1 (Homo sapiens, UniProt Q07820); experiment: LUMIER full-length protein interaction; assay type: binding; details: LUMIER results for Mcl-1, Z-score relative to Gaussian fit of the data; for z-score 1.2: experiment 1, duplicate 2; for z-score 2.1: experiment 2, duplicate 1; for z-score 2.2: experiment 2, duplicate 2
T2 construct: myc-Mcl-1 SPOT array & FP; made in house
T2 sequence (Q07820 with tags, fused parts or gaps): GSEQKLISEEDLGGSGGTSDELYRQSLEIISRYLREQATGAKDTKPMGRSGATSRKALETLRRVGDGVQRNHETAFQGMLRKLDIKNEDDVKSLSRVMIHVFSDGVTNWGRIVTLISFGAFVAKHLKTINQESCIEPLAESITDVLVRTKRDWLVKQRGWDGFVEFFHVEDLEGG
Procedure: as §1

[3] = Z-score relative to Gaussian fit of the data
[4] = Z-score of the interaction relative to the Gaussian fit of the data

Row | z-score 1.1 [1, 3] | z-score 1.2 [1, 3] | z-score 2.1 [1, 3] | z-score 2.2 [1, 3] | z-score 1.2 [2] | z-score 2.1 [2] | z-score 2.2 [2] | z-score 1.1 [1, 4] | z-score 1.2 [1, 4] | z-score 2.1 [1, 4] | z-score 2.2 [1, 4] | Molecule
1 | -0.3372 | -0.9542 | 2.574 | 0.6781 | -0.6598 | 0.132 | -0.2801 | – | – | – | – | CC[C@H](C)[C@H](NC(=O)[C@@H]1CCCN1C(=O)[C@H](CCCNC(=N)N)NC(=O)[C@H](CCCNC(=N)N)NC(=O)[C@@H]1CCCN1C(=O)[C@H](CC(N)=O)NC(=O)[C@H](C)NC(=O)[C@H](CC(C)C)NC(=O)[C@H](CCSC)NC(=O)[C@H](CC(=O)O)NC(=O)[C@H](CO)NC(=O)[C@H](Cc1c[nH]c2ccccc12)NC(=O)[C@H](Cc1c[nH]cn1)NC(=O)[C@H](CCCNC(=N)N)NC(=O)[C@H](CC(C)C)NC(=O)[C@H](CCC(=O)O)NC(=O)[C@H](C)NC(=O)CNC(=O)[C@@H](NC(=O)[C@H](CO)NC(=O)[C@H](CC(N)=O)NC(=O)[C@H](Cc1ccc(O)cc1)NC(=O)CNC(=O)[C@@H](NC(=O)[C@H](Cc1ccccc1)NC(=O)c1ccc2c(c1)C(=O)OC21c2ccc(O)cc2Oc2cc(O)ccc21)C(C)C)[C@@H](C)O)C(=O)N[C@@H](C)C(N)=O [SYT1] (5FAM-FVGYNSTGAELRHWSDMLANPRRPIA-NH2)
2 | 2.487 | -0.8795 | 0.2924 | 1.441 | 0.7914 | 1.721 | 2.179 | – | – | – | – | ACN9 (LQLHRVLPPDLKSLGDQYVKDEFRRH)
3 | – | – | 1.607 and 2.423 | – | 0.9409 and 0.8269 | 2.599 and 2.298 | 1.567 and 1.468 | – | – | – | – | ATP6AP2 (RDASKILVDALQKFADDMYSLYGGNA)
4 | – | – | – | – | 6.48 | 5.961 | 6.848 | 0.8883 | 2.921 | 1.064 | 1.82 | BAK1 (SSTMGQVGRQLAIIGDDINRRYDSEF)
5 | 1.141 and 1.702 | – | – | – | – | 0.6411 and 1.2239 | – | – | – | – | – | BBS10 (RMIVDCVSSHLKKTGDGAKTFIIFLC)
6 | – | – | – | – | 9.774 | 11.6048 | 12.4336 | – | – | – | – | BCL2L11 (MRPEIWIAQELRRIGDEFNAYYARRV)
7 | 0.6785 | 0.5183 | 0.5393 | 0.7734 | 0.6167 | 1.59 | 1.598 | – | – | – | – | C7orf26 (FDHMVPLVEEINRLADELNPLNASQE)
8 | 0.03556 | -1.065 | 0.3161 | -0.06353 | -0.8504 | -0.06643 | -0.03009 | – | – | – | – | CASP8 (PFKKMDFSRNLYDIGEQLDSEDLASL)
9 | – | – | – | – | 0.8015 | 1.282 | 1.811 | 2.807 | 1.916 | 0.2364 | 0.8316 | CCDC57 (QAGPVSSGLALRKLGDRVQLLNLLVT)
10 | 1.515 | -1.523 | 1.61 | 2.141 | – | 1.806 | 2.677 | – | – | – | – | COL2A1 (VLLTLLVAAVLRCQGQDVQEAGSCVQ)
11 | -0.437 | -1.625 | 0.4619 | – | -0.01526 | 0.02916 | -0.562 | – | – | – | – | CTSL2 (SQGKHGFTMAMNAFGDMTNEEFRQMM)
12 | 0.3673 | -1.779 | 0.009756 | -0.6661 | 0.6104 | -0.8677 | -1.447 | – | – | – | – | CYBB (APEEDFFSIHIRIVGDWTEGLFNACG)
13 | – | – | 1.152 and 2.217 | – | – | – | – | – | – | – | – | FBXW5 (LTETSLISGNLHRIGDITSCSVLWLN)
